Data taken from article PMC2635752.

Key:
[1] = molecular target: growth-associated protein GAP-43 (mouse (endogenous in N1E-115)) (UniProt P06837); experiment: cross-linking + co-IP; cells lysed in 1% NP-40 substitute buffer first; 1 mM DSP added to the low-speed supernatant (15 min, room temperature); glycine and SDS added; 100,000 × g supernatant; monoclonal anti-GAP-43; two-dimensional gel; spots counted, calmodulin cpm divided by 9/4
[2] = molecular target: growth-associated protein GAP-43 (mouse (endogenous in N1E-115)) (UniProt P06837); experiment: cross-linking + co-IP; 1 mM DSP added to living [35S]-labeled differentiated N1E-115 cells (15 min, room temperature, KRH); lysis in SDS, then NP-40 lysis buffer; 100,000 × g supernatant; monoclonal anti-GAP-43 (clone 91E12) and protein G plus agarose; crosslinks cleaved; two-dimensional gel, fluorography; spots cut out and counted, calmodulin cpm divided by 9/4

Chain of UniProt P06837 (P06837 whole entry): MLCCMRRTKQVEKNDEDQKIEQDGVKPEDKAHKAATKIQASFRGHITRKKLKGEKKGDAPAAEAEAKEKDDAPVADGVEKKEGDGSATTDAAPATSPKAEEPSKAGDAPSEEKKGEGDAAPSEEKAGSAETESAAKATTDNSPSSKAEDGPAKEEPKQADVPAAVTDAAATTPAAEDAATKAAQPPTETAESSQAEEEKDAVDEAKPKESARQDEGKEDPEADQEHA

- calmodulin as percent of the GAP-43 in the immunoprecipitate [1]: 39%
- radioactivity of calmodulin in the anti-GAP-43 immunoprecipitate (divided by 9/4) [1]: 643 cpm
- calmodulin as percent of the GAP-43 in the immunoprecipitate [2]: 14%
- percent of the total GAP-43 crosslinked to calmodulin [2]: 25%
- radioactivity of calmodulin in the anti-GAP-43 immunoprecipitate (divided by 9/4) [2]: 278 cpm
Substance: calmodulin (from UniProt P0DP26 1-149) (natural protein)
